Experimental data as given in paper PMC9482650, “Quantitative fragmentomics allow affinity mapping of interactomes” (Nature Communications, 2022).
Positions count from the first letter of the chain named.

Experiments:
Experiment in all cases: holdup assay
Design in all cases: key: below the threshold = too weak to quantify, mostly under pKd 3.1 to 4
FRMPD2_2, Q68DX3 = target: FRMPD2_2, Q68DX3
ARHGAP21, Q5T5U3 = target: T1, ARHGAP21, Q5T5U3
T1 sequence (Q5T5U3 45-169, limits assumed, looked up): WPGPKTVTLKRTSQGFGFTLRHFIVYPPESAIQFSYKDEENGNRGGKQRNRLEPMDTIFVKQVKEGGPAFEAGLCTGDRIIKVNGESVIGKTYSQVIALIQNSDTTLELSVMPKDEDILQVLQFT

MPDZ_5, O75970 = target: T2, MPDZ_5, O75970
T2 sequence (O75970 695-796, limits assumed, looked up): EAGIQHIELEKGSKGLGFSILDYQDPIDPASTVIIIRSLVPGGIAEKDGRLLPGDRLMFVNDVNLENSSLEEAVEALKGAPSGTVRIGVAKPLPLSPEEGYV

DLG3_1, Q92796 = target: T3, DLG3_1, Q92796
T3 sequence (Q92796 125-227, limits assumed, looked up): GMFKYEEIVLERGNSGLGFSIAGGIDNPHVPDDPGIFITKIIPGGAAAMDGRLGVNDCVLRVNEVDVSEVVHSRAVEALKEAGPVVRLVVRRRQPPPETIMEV

TIAM2, Q8IVF5 = target: T4, TIAM2, Q8IVF5
T4 sequence (Q8IVF5 885-986, limits assumed, looked up): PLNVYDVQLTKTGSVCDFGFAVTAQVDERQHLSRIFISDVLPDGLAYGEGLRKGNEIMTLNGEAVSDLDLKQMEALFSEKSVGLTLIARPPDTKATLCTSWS

LIN7C, Q9NUP9 = target: T5, LIN7C, Q9NUP9
T5 sequence (Q9NUP9 88-185, limits assumed, looked up): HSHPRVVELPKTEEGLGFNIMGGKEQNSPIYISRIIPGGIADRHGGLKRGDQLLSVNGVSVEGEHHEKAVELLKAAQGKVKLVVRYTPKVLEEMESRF

SCRIB_3, Q14160 = target: SCRIB_3, Q14160
Chain of SCRIB_3, Q14160 (Q14160 999-1103): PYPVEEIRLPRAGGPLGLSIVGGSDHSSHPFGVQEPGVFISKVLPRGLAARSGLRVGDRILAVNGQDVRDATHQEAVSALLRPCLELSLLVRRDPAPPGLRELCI

DLG5_1, Q8TDM6 = target: DLG5_1, Q8TDM6
Chain of DLG5_1, Q8TDM6 (Q8TDM6 617-713): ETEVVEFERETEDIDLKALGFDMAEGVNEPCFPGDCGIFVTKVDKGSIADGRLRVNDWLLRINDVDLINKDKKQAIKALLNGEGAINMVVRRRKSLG

TX1BP3, O14907 = target: T6, TX1BP3, O14907
T6 sequence (O14907 10-122, limits assumed, looked up): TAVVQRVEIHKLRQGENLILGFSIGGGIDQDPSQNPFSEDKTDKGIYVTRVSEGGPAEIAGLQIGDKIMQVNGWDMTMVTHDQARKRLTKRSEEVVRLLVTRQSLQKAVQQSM

GRIP1_4, Q9Y3R0 = target: T7, GRIP1_4, Q9Y3R0
T7 sequence (Q9Y3R0 467-571, limits assumed, looked up): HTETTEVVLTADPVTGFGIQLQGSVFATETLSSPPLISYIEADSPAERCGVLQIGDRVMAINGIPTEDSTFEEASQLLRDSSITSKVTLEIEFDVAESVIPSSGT

SNTB1, Q13884 = target: T8, SNTB1, Q13884
T8 sequence (Q13884 107-205, limits assumed, looked up): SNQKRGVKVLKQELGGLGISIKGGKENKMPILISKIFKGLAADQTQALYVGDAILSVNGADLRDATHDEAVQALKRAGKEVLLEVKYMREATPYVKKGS

MAGI1_2, Q96QZ7 = target: MAGI1_2, Q96QZ7
Chain of MAGI1_2, Q96QZ7 (Q96QZ7 456-580): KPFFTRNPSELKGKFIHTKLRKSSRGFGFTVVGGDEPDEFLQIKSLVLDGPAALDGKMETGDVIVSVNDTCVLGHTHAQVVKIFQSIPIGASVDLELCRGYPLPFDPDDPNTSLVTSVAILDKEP

MPDZ_10, O75970 = target: T9, MPDZ_10, O75970
T9 sequence (O75970 1624-1722, limits assumed, looked up): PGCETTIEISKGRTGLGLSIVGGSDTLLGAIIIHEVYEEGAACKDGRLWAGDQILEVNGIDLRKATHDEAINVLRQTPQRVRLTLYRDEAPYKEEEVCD

PDZD2_2, O15018 = target: T10, PDZD2_2, O15018
T10 sequence (O15018 329-429, limits assumed, looked up): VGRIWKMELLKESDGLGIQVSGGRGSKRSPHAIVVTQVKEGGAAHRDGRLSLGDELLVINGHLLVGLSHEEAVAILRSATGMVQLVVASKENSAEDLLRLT

LAP2, Q96RT1 = target: LAP2, Q96RT1
Chain of LAP2, Q96RT1 (Q96RT1 other isoform, or with tags, fused parts or gaps): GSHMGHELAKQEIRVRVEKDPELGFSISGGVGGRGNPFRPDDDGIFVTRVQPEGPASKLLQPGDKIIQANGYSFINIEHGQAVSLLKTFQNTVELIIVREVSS

GRID2IP_2, A4D2P6 = target: GRID2IP_2, A4D2P6
Chain of GRID2IP_2, A4D2P6 (A4D2P6 272-370): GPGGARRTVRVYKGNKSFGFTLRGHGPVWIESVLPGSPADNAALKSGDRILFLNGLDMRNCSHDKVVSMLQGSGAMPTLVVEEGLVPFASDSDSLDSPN

LNX1_2, Q8TBB1 = target: LNX1_2, Q8TBB1
Chain of LNX1_2, Q8TBB1 (Q8TBB1 371-470): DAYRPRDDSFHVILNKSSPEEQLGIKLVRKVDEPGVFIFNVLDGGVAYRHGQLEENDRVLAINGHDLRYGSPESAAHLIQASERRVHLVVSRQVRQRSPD

AHNAK1, Q09666 = target: AHNAK1, Q09666
Chain of AHNAK1, Q09666 (Q09666 4-100): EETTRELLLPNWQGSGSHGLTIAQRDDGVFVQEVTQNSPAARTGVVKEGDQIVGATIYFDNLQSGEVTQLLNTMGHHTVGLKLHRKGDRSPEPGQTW

GRASP, Q7Z6J2 = target: GRASP, Q7Z6J2
Chain of GRASP, Q7Z6J2 (Q7Z6J2 96-193): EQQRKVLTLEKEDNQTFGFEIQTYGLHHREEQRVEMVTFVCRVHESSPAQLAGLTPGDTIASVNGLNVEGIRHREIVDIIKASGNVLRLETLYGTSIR

Inadl_6, Q8NI35 = target: Inadl_6, Q8NI35
Chain of Inadl_6, Q8NI35 (Q8NI35 1058-1167): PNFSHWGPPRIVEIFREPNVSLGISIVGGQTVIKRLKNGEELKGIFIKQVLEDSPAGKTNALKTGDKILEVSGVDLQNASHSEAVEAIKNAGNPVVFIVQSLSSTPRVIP

MPP6, Q9NZW5 = target: T11, MPP6, Q9NZW5
T11 sequence (Q9NZW5 125-219, limits assumed, looked up): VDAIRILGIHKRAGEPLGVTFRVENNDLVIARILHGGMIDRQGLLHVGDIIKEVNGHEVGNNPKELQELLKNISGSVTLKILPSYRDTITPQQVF

PICK1, Q9NRD5 = target: PICK1, Q9NRD5
Chain of PICK1, Q9NRD5 (Q9NRD5 17-115): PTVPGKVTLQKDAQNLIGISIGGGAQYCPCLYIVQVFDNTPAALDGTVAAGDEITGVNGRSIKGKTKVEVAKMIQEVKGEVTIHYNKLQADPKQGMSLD

LIN7B, Q9HAP6 = target: T12, LIN7B, Q9HAP6
T12 sequence (Q9HAP6 88-185, limits assumed, looked up): T5 sequence (Q9NUP9 88-185, limits assumed, looked up) with S2A, E13D, I35V, I40V, H65Q, K79S, K89R, S96A

FRMPD2_1, Q68DX3 = target: FRMPD2_1, Q68DX3
Chain of FRMPD2_1, Q68DX3 (Q68DX3 770-861): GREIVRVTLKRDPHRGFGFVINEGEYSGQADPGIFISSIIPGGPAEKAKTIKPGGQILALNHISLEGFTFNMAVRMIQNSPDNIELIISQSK

SNX27, Q96L92 = target: SNX27, Q96L92
[1] = plain residues with an end cap or a label only (N-terminal biotin on a linker: ado-ado)
[2] = modified: phospho on T at position -2 from the C-terminal residue

Measured: pKd

Chain of FRMPD2_2, Q68DX3 (Q68DX3 944-1038): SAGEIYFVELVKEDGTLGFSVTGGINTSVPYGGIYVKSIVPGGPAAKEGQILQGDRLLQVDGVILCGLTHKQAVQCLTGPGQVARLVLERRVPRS

GQEEQVTTRL [TRPC5, Q9UL62]
below the threshold: FRMPD2_2, Q68DX3; [1] | MPDZ_5, O75970; [1] | DLG3_1, Q92796; [1] | LIN7C, Q9NUP9; [1] | DLG5_1, Q8TDM6; [1] | GRIP1_4, Q9Y3R0; [1] | MAGI1_2, Q96QZ7; [1] | MPDZ_10, O75970; [1] | PDZD2_2, O15018; [1] | LAP2, Q96RT1; [1] | LNX1_2, Q8TBB1; [1] | AHNAK1, Q09666; [1] | MPP6, Q9NZW5; [1] | LIN7B, Q9HAP6; [1] | FRMPD2_1, Q68DX3; [1]
4.22: SCRIB_3, Q14160; [1]
3.79: Inadl_6, Q8NI35; [1]
4.63: GRASP, Q7Z6J2; [1]
4.04: SNTB1, Q13884; [1]
5.47: SNX27, Q96L92; [1]
3.65: TIAM2, Q8IVF5; [1]
3.69: TX1BP3, O14907; [1]
4.06: PICK1, Q9NRD5; [1]
4.44: GRID2IP_2, A4D2P6; [1]
4.07: ARHGAP21, Q5T5U3; [1]

QPCFNKLFPL [LPXN, O60711]
below the threshold: FRMPD2_2, Q68DX3; [1] | MPDZ_5, O75970; [1] | DLG3_1, Q92796; [1] | TIAM2, Q8IVF5; [1] | LIN7C, Q9NUP9; [1] | SCRIB_3, Q14160; [1] | DLG5_1, Q8TDM6; [1] | TX1BP3, O14907; [1] | GRIP1_4, Q9Y3R0; [1] | SNTB1, Q13884; [1] | MAGI1_2, Q96QZ7; [1] | MPDZ_10, O75970; [1] | PDZD2_2, O15018; [1] | LAP2, Q96RT1; [1] | GRID2IP_2, A4D2P6; [1] | LNX1_2, Q8TBB1; [1] | AHNAK1, Q09666; [1] | GRASP, Q7Z6J2; [1] | Inadl_6, Q8NI35; [1] | MPP6, Q9NZW5; [1] | PICK1, Q9NRD5; [1] | LIN7B, Q9HAP6; [1] | FRMPD2_1, Q68DX3; [1]
3.75: SNX27, Q96L92; [1]
3.91: ARHGAP21, Q5T5U3; [1]

RLQRRRETQV [HPV18-E6_-2P, P06463]
4.03: ARHGAP21, Q5T5U3; [2]
below the threshold: FRMPD2_2, Q68DX3; [2] | MPDZ_5, O75970; [2] | DLG3_1, Q92796; [2] | TIAM2, Q8IVF5; [2] | SCRIB_3, Q14160; [2] | DLG5_1, Q8TDM6; [2] | TX1BP3, O14907; [2] | GRIP1_4, Q9Y3R0; [2] | SNTB1, Q13884; [2] | MAGI1_2, Q96QZ7; [2] | MPDZ_10, O75970; [2] | PDZD2_2, O15018; [2] | LAP2, Q96RT1; [2] | GRID2IP_2, A4D2P6; [2] | LNX1_2, Q8TBB1; [2] | AHNAK1, Q09666; [2] | GRASP, Q7Z6J2; [2] | Inadl_6, Q8NI35; [2] | PICK1, Q9NRD5; [2] | LIN7B, Q9HAP6; [2] | FRMPD2_1, Q68DX3; [2]
4.07: LIN7C, Q9NUP9; [2]
3.57: MPP6, Q9NZW5; [2]
3.61: SNX27, Q96L92; [2]

SSALYGESDL [ACTN2, P35609]
4.9: TX1BP3, O14907; [1]
4.05: SNTB1, Q13884; [1]
4.18: TIAM2, Q8IVF5; [1]
5.1: SCRIB_3, Q14160; [1]
4.76: SNX27, Q96L92; [1]
below the threshold: FRMPD2_2, Q68DX3; [1] | ARHGAP21, Q5T5U3; [1] | MPDZ_5, O75970; [1] | DLG3_1, Q92796; [1] | LIN7C, Q9NUP9; [1] | DLG5_1, Q8TDM6; [1] | GRIP1_4, Q9Y3R0; [1] | MAGI1_2, Q96QZ7; [1] | MPDZ_10, O75970; [1] | PDZD2_2, O15018; [1] | GRID2IP_2, A4D2P6; [1] | LNX1_2, Q8TBB1; [1] | AHNAK1, Q09666; [1] | Inadl_6, Q8NI35; [1] | MPP6, Q9NZW5; [1] | PICK1, Q9NRD5; [1] | FRMPD2_1, Q68DX3; [1]
3.96: LAP2, Q96RT1; [1]
3.93: GRASP, Q7Z6J2; [1]
3.76: LIN7B, Q9HAP6; [1]
